Test results from article PMC4072576.

Biological target: FLAG-ctxIII coexpressed in E. coli with His-ctxI or His-ctxII (Dictyostelium discoideum)
Assay: AUC

Chain of His-ctxI (recombinant N-terminal His-tagged cortexillin I) (Q54HG2 whole entry): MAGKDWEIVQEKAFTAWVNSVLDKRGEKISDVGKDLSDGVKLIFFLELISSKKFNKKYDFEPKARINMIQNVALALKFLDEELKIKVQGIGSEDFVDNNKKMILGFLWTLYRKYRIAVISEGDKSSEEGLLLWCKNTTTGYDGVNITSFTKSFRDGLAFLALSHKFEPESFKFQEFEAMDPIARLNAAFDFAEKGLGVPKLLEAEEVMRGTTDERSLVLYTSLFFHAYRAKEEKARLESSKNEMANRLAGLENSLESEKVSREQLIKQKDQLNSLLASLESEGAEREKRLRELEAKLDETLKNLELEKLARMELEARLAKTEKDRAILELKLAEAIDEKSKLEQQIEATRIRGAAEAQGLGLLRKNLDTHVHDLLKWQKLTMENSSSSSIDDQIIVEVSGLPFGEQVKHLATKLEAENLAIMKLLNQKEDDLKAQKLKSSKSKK
Chain of His-ctxII (recombinant N-terminal His-tagged cortexillin II) (Q550R2 whole entry): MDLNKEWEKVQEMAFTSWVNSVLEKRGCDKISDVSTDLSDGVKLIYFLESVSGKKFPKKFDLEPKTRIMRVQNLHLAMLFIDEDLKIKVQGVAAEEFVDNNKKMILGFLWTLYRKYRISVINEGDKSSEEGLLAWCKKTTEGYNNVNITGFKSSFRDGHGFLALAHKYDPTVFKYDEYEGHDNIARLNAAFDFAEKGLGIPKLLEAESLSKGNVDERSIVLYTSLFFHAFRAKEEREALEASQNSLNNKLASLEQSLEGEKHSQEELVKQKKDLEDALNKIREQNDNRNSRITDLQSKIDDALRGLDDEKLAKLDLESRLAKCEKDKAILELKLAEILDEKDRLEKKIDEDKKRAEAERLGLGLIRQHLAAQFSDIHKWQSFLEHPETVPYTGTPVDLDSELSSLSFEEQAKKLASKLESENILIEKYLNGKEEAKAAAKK

Substance	major peak (heterodimer), percent of total protein [%]
His-ctxI (recombinant N-terminal His-tagged cortexillin I) (from UniProt Q54HG2 1-444) (natural protein)	60
His-ctxII (recombinant N-terminal His-tagged cortexillin II) (from UniProt Q550R2 1-441) (natural protein)	70
